Assay results taken from patent EP4818200A1 (USWM CT, LLC, dated 2026).

Key:
[1] = target: T1, … HLA-A*0201 complex (biotinylated soluble pHLA) (human, enzymatically biotinylated (BirA) on the C-terminal biotinylation tag); assay: SPR (BIAcore 3000), soluble TCR over immobilised biotinylated pHLA, 25 °C
T1 construct: also called MAGE A4; not shown: C-terminal biotinylation tag

[2] = target: T2, … HLA-A*0201 complex (biotinylated soluble pHLA) (human, enzymatically biotinylated (BirA) on the C-terminal biotinylation tag); assay: as above
T2 construct: also called MAGE-B2; not shown: C-terminal biotinylation tag

Row | Kd [1] [µM] | Kd [2] [µM] | Binder
1 | 17.2 | 198 | TCR2 (TCR) TCR alpha: MKNQVEQSPQSLIILEGKNCTLQCNYTVSPFSNLRWYKQDTGRGPVSLTIMTFSENTKSNGRYTATLDADTKQSSLHITASQLSDSASYICVVSGGTDSWGKLQF TCR beta: not shown
2 | 5.1 | 52.6 | TCR4 (TCR) TCR alpha: MKNQVEQSPQSLIILEGKNCTLQCNYTVSPFSNLRWYKQDTGRGPVSLTILTFSENTKSNGRYTATLDADTKQSSLHITASQLSDSASYICVVSGGTDSWGKLQF TCR beta: not shown
3 | 2.6 | 27.6 | TCR3 (TCR) TCR alpha: MKNQVEQSPQSLIILEGKNCTLQCNYTVSPFSNLRWYKQDTGRGPVSLTIVTFSENTKSNGRYTATLDADTKQSSLHITASQLSDSASYICVVSGGTDSWGKLQF TCR beta: not shown
